Test results taken from US8440804B2, “Polypeptides having modulatory effects on cells” (Ecole Normale Superieure de Lyon, priority 2006, dated 2013).

Tests used:
[1] = target: T1, CNA beta C-terminal fragment (Homo sapiens, UniProt P16298); test: Yeast two-hybrid assays of R5G42 mutants; assay type: binding; settings: plasmids pSH18-34, pJK103, pRB18-40
T1 construct: expressed in transfected cells; host or cells: yeast (MB210a transformed with library plasmid, mated with bait strain)
Method: (§1) The capacity of R5G42 mutants having a one amino acid change as compared to R5G42 to bind CNA beta and gamma C-Terminal fragments (FIG. 3b) and NS5A-TP2 was tested in yeast two-hybrid assays. CNA beta and gamma C-Terminal fragments and NS5A-TP2 were cloned in three different vectors (pSH18-34, pJK103 and pRB18-40). These three plasmids differ from each other in the level of sensitivity of their promoter, pSH18-34 having the highest sensitivity and pRB18-40 having the lowest.
(§2) The inventors explored the ability of R5G42 mutants having a one amino acid change as compared to R5G42, to bind to CNA beta and gamma C-Terminal fragments (FIG. 3b) and to NS5A-TP2. To this end, they proceeded to yeast-two hybrid assays as in example 3. CNA beta and gamma C-Terminal fragments (FIG. 3b) and NS5A-TP2 were cloned in three different plasmids (pSH18-34, pJK103 and pRB18-40), which differed from each other in the level of sensitivity of their promoter to the bait/prey complex formation, pSH18-34 having the highest sensitivity and pRB18-40 having the lowest.

NS5A-TP2 = target: T2, NS5A-TP2 (Homo sapiens, UniProt Q7Z4H3); test: Yeast two-hybrid assays of R5G42 mutants; assay type: binding; settings: plasmids pSH18-34, pJK103, pRB18-40
T2 construct: expressed in transfected cells; host or cells: yeast
T2 sequence (Q7Z4H3 1-204): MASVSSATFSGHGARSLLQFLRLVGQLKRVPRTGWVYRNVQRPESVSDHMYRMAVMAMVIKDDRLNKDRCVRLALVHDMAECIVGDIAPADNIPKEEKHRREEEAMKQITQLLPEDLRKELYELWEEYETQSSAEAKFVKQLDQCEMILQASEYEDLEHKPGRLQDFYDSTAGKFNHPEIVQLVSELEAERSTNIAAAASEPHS
Method: as §1, §2

CNA = test: Yeast two-hybrid assay; assay type: binding, human; settings: point mutant
Description: (A) Yeast two-hybrid mating assay. TB50α yeast were co-transformed with pSH18-34T (bearing a lacZ reporter gene) and plasmids directing the expression of LexA alone or in fusion with peptide aptamers R5G42, R7G44 or R5G52. MB210a yeast were transformed with the selected cDNA library plasmids directing the expression of CNAβ, CNAγ, and NS5ATP2 truncated proteins. To obtain negative controls, MB210a yeast were also transformed with the empty prey plasmid (pJG4-5) and with pJG4-5 directing the expression of Ras and FKBP12 prey proteins. To obtain a positive control, MB210a yeast were transformed with pJG4-5 directing the expression of RG22 peptide aptamer prey fusion protein that interacts with LexA in the context of most LexA fusion proteins.
The inventors set out to map the R5G42 binding site on CNA. The CNA interacting clones selected in the yeast two-hybrid experiments corresponded to the carboxy-terminal regions of the beta and gamma isoforms, encompassing the calmodulin-binding domain and the auto-inhibitory domain (see FIG. 3B). […] The LexA-R5G52 bait protein may thus not be properly expressed and/or folded in this yeast two-hybrid setting.
as §2
The 5′ end of RH6 (upper case) matches part of the HA epitope tag and the 5′ ends of RH4, RH3 and RH7 (upper case) match the 5′ extremity of the ADH terminator. The PCR reactions was performed using pCMV-SPORT6-CnAβ as a template. CnAβCter Δ1, Δ2, CaM were constructed by combining oligonucleotides RH6/RH4, RH6/RH3, RH6/RH7, respectively. […]

[2] = test system: tibialis anterior muscle atrophy; test: In vivo tibia muscles denervation assay; settings: mice, plasmid electroporation in hind legs, 14 days post-denervation
Method: Vectors containing TRX, the R5G42, C7 or N9 aptamers or NaCl (control) were electroporated in mice hind legs (day 1) and an unilateral abolition of the motor innervation of the tibia muscles of the left hind leg was performed (day 3). After euthanasia of the mice (day 17) the tibialis anterior area was measured. Without denervation, the muscle area is relatively stable from one experiment to another (6.532.412+/−351.070, or 5.3% of variation). With denervation a reduced atrophy effect of about 27% and 48% is observed with aptamers R5G42 and N9 as compared to the atrophy effect obtained using the NaCl control (See FIGS. 19-20). The 100% of atrophy effect was evaluated using the data obtained with the NaCl control.
Another group of mice hind legs were electroporated after the injection of vectors containing TRX, the R5G42, C7 or N9 aptamers or with NaCl (control) at day 1. A unilateral abolition of the motor innervation of the tibia muscles of the left hind leg was performed at day 3 in order to induce a muscular atrophy. The mice were then euthanised at day 17, i.e. 14 days after sciatic denervation of the left hind leg. […] With denervation a reduced atrophy effect of about 27% and 48% is observed with aptamers R5G42 and N9 as compared to the atrophy effect obtained using the NaCl control (FIG. 18). […]

- yeast two-hybrid interaction (NS5A-TP2): shown to interact with NS5A-TP2
B1: N9: R5G42 mutant having a one amino acid change (SEQ ID 33) (protein)
chain: MVKQIESKTAFQEALDAAGDKLVVVDFSAAWCGPSAVTFAVCALGPCKMIKPFFHSLSEKYSNVIFLEVDVDDCQDVASECEVKCMPTFQFFKKGQKVGEFSGANKEKLEATINELV
modifications: Aptamer R5G42 mutant N9
- yeast two-hybrid interaction [1]: not with the CNA beta and gamma C-terminal fragments
- two hybrid interaction phenotype against CNA compared to R5G42 (CNA): dramatic reduction
- reduced atrophy effect as compared to the NaCl control (tibialis anterior area) [2]: ~48%
